Measured values from patent US7445940.

Biological target: human endoglin (human) (UniProt P17813)
Assay: cell-based or functional assay

Sequence of UniProt P17813 (P17813 26-658): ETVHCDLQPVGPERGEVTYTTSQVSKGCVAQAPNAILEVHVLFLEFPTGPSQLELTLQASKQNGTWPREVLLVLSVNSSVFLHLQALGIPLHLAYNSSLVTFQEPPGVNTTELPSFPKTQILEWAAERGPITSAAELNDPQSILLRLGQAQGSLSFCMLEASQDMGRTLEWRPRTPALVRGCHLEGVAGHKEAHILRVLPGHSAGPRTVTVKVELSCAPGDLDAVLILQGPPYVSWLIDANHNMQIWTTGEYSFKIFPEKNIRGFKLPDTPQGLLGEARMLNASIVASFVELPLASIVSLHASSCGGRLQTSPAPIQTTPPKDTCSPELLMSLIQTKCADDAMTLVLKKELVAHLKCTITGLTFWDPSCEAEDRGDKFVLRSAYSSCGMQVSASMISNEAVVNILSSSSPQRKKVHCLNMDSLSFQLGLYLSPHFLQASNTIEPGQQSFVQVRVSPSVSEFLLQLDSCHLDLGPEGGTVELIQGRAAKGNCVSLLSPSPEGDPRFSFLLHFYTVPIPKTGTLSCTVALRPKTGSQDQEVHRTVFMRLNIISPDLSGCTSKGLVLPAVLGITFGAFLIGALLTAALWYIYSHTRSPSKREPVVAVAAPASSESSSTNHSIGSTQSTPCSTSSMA

Murine monoclonal antibody (MAb) 44G4 specific for human endoglin
EVT outgrowth and migration (EVT outgrowths/villous tip), 24 h after addition (day 2 of culture) (EVT outgrowths/villous tip): 2.03
concentration of maximal stimulation of EVT outgrowth: 1 µg/mL
fibronectin (FN) synthesis by villous explants, fold increase relative to control: 8 fold
